Measured values published in patent publication US9878046B2, “Adverse side-effects associated with administration of an anti-hyaluronan agent and methods for ameliorating or preventing the side-effects” (Halozyme, Inc., priority 2010, dated 2018).
Where “and” joins values, the source holds several entries; their conditions need not be identical. Equal entries are not always repeated. Entries after “also recorded” stand apart in the source; their conditions may differ.

Key:
tumor regions = test: Apparent diffusion coefficient MRI (ADC-MRI) of tumors; format: in vivo, human
Protocol: Scans were performed pre-treatment and post-treatment.
Apparent diffusion coefficient magnetic Resonance imaging (ADC-MRI) measures the volume of water that has moved across the cell membrane based upon a calculation derived from the pre- and post-treatment scans. ADC-MRI scans were completed for a total of 10 of the 14 patients in the study described in Example 6 and 4 of the 5 patients in the study described in Example 10. […] Increased ADC values are consistent with the mechanism of action of PEGPH20.

[1] = system: PC3 prostate carcinoma cell line; details: 157,500 Units/kg (about 4.5 mg/kg) IV Q3Dx5; cited from earlier work
hyaluronan = test: Hyaluronan staining of BxPC3 tumor sections; format: in vivo, human (xenograft in athymic female nude mice); details: Day 18, dexamethasone low or high dose, PEGPH20 4.5 mg/kg, or both
Protocol: Tumor tissues from the two satellite mice from all 6 treatment groups in Example 9B.1 above, were harvested by tissue biopsy on Day 18 and stained for the presence of hyaluronan. Tumor biopsies were fixed in 10% NBF for 48 hours, embedded in paraffin, and sectioned. Samples were probed for hyaluronan using a biotinylated HA-binding protein (HABP), then probed with FITC-labeled streptavidin for detection. The cell nuclei were counterstained with DAPI (4′,6-diamidino-2-phenylindole) reagent. Micrographs were then captured using a Zeiss Microscope (Thornwood, N.Y.) coupled with the Spot imaging program (Diagnostic Instruments, Inc).
Hyaluronan expression in the sections was evaluated by the level of green fluorescent intensity in the sections.

[2] = system: pericellular and stromal HA; test: Histochemical detection of HA in patient tumor biopsies; format: in vivo, human; details: colon cancer patient, liver metastasis, 1.6 μg/kg twice weekly + dexamethasone, post vs archived pre biopsy
Protocol: An archived pre-dose biopsy (pre biopsy) obtained in 2007 (3.5 years prior to the PEGPH20 study) and a post-PEGPH20 Cycle 1 (3 days after the last dose) biospsy (Post biopsy) were obtained from a colon cancer patient with liver metastases. The patient post-treatment biopsy was obtained after one cycle of PEGPH20 treatment at 1.6 μg/kg on a twice weekly schedule with dexamethasone co-treatment.
Briefly, the tumor biopsies were fixed in normal buffered formalin (NBF) and 5 μm sections cut and stained using a biotin labeled hyaluronan binding protein (HABP-bio) (Seikagaku, Japan). After washing to remove the primary reagent, a labeled secondary reagent was used. Nuclei were counter-stained using a DAPI (4′,6-diamidino-2-phenylindole) reagent. Micrographs were captured via a Nikon Eclipse TE2000U inverted fluorescent microscope coupled to a Insight FireWire digital camera (Diagnostic Instruments, Michigan) or ZEISS overhead scope (Carl Zeiss, Inc.) that has the same imaging system.

HA catabolites = HA catabolites in dogs; format: in vivo, beagle dog; details: after PEGPH20 administration, with or without dexamethasone
Protocol: HA catabolites also were measured as described in Example 6.

[3] = Plasma pharmacokinetics of PEGPH20 (hyaluronidase activity) in patients
Protocol: Plasma samples were stored frozen, and concentrations of PEGPH20 were determined by measuring hyaluronidase activity using a modified turbidimetric assay as described in Example 4. The USP turbidimetirc method used for the determination of hyaluronidase activity awas based on the formation of an insoluble precipitate that occurs when HA binds with acidified serum. PEGPH20 concentrations were expressed as units of hyaluronidase activity (U/mL) as interpolated from a calibration curve. Activity was reported to the nearest 1 U/mL, and the analytical methods were applicable for measuring plasma hyaluronidase concentrations as low as 0.3125 U/mL.

[4] = system: soluble plasma hyaluronan; test: Soluble plasma hyaluronan ELISA in BxPC3 model mice; format: in vivo; details: PEGPH20 4.5 mg/kg alone or + dexamethasone (high or low dose)
Protocol: Plasma samples were additionally used to measure soluble plasma hyaluronan in the control group and each of the treatment groups (R&D Systems Catalog #DY3614; ELISA assay). In the vehicle control group, the plasma hyaluronan levels ranged from 2,000 to 4,000 ng/mL.

tissue HA (hyaluronan) = test: Histochemical HA staining of skeletal muscle and skin biopsies; format: in vivo, beagle dog
Protocol: Twenty-four hours post-dose (Day 60), skeletal muscle biopsies were taken from each of the three treated dogs and also from an untreated control beagle dog. The medial semitendinosis/medial membranosus muscle(s) were targeted for biopsies. The area of the biopsy was shaved using electric clippers and scrubbed using either Chlorhexidine or Povidone-Iodine solutions. Bupivacaine or Lidocaine (2-3 mg/kg) was injected subcutaneously (SC) in the area of the biopsy for local analgesia. The muscle biopsy was collected using a 2-mm-diameter biopsy needle. A gauze sponge was applied with slight pressure to stop any bleeding. Metacam (meloxicam) 0.2 mg/kg was injected SC to control pain. Biopsy samples were placed in Eppendorf tubes or equivalent with approximately 200 μL 10% neutral-buffered formalin (NBF).
Biopsied tissue samples were stained for tissue HA using a highly specific histochemical staining method. […] The cell nuclei were counterstained with DAPI (4′,6-diamidino-2-phenylindole) reagent. Micrographs were then captured using a Zeiss Microscope (Thornwood, N.Y.) coupled with the Spot imaging program (Diagnostic Instruments, Inc).
The medial semitendinosis/medial membranosus muscle(s) were targeted for biopsies. The area of the biopsy was shaved using electric clippers and scrubbed using either Chlorhexidine or Povidone-Iodine solutions. […]

[5] = Dexamethasone premedication and PEGPH20-induced musculoskeletal observations
Protocol: In one study, four naïve male beagle dogs were orally dosed with 4 mg/dose dexamethasone twice a day on the day of PEGPH20 administration. The first dexamethasone dose was given orally (PO) immediately before PEGPH20 intravenous (IV) administration. The second dexamethasone dose was given orally ˜8 hours later. On day 1, one dog was dosed with 3040 U/kg (0.08 mg/kg) PEGPH20 after Dexamethasone. Twenty four hours later (day 2), a second dog was dosed with 5700 U/kg (0.15 mg/kg) PEGPH20 after Dexamethasone. Twenty four hours later (day 3), a third dog was dosed with 11400 U/kg (0.3 mg/kg) PEGPH20 after Dexamethasone. Twenty four hours later (day 4), a fourth dog was dosed with 38000 U/kg (1.0 mg/kg) PEGPH20 after Dexamethasone. Blood was collected pre-PEGPH20 administration, and 0.5 hr, 4 h and 24 h post-PEGPH20 administration.
PEGPH20 was administered IV with a 5 mL bolus injection via percutaneous needle puncture of the cephalic vein on study Days 1, 2 and/or 5. Dexamethasone was administered orally immediately before the PEGPH20 injection and approximately 8 hours post injection. All animals were re-dosed 3 days after the first injection except those in the PEGPH20 alone treatment group, which were not re-dosed.
Animals treated with only one dose of PEGPH20 were evaluated at 96 hours, 120 hours, 6, 7, 8, and 9 days post-dose.

[6] = all scanned patients of both studies
[7] = single 50 μg/kg dose, individual patients 1 and 2

B1: PEGPH20 (protein)
chain: LNFRAPPVIPNVPFLWAWNAPSEFCLGKFDEPLDMSLFSFIGSPRINATGQGVTIFYVDRLGYYPYIDSITGVTVNGGIPQKISLQDHLDKAKKDITFYMPVDNLGMAVIDWEEWRPTWARNWKPKDVYKNRSIELVQQQNVQLSLTEATEKAKQEFEKAGKDFLVETIKLGKLLRPNHLWGYYLFPDCYNHHYKKPGYNGSCFNVEIKRNDDLSWLWNESTALYPSIYLNTQQSPVAATLYVRNRVREAIRVSKIPDAKSPLPVFAYTRIVFTDQVLKFLSQDELVYTFGETVALGASGIVIWGTLSIMRSMKSCLLLDNYMETILNPYIINVTLAAKMCSQVLCQEQGVCIRKNWNSSDYLHLNPDNFAIQLEKGGKFTVRGKPTLEDLEQFSEKFYCSCYSTLSCKEKADVKDTDAVDVCIADGVCIDAFLKPPMETEEPQIFY
Change in Tumor ADC-MRI from baseline (tumor regions; 0.5 μg/kg, 2x/wk, scan D3): no change | Change in Tumor ADC-MRI from baseline (tumor regions; 0.5 μg/kg, 21 day cycle, individual patients, scan D3 or D4): decrease in lymph nodes; also recorded: increase | Change in Tumor ADC-MRI from baseline (tumor regions; 0.75 μg/kg, 21 day cycle, individual patients, scan D3 (D30)): increase; also recorded: no change | Change in Tumor ADC-MRI from baseline (tumor regions; 1.0 μg/kg, 21 day cycle, scan D5): increase | Change in Tumor ADC-MRI from baseline (tumor regions; 1.5 μg/kg, 21 day cycle, scan D3): no change | Change in Tumor ADC-MRI from baseline (tumor regions; 50 μg/kg, scan D4): no change | patients with ADC values decreased (tumor regions; [6]): 2 of 14 | patients with ADC values unchanged (tumor regions; [6]): 5 of 14 | patients with increases in ADC-MRI (tumor regions; [6]): 7 of 14 | xenograft tumor growth inhibition, previously shown [1]: 34-70% | hyaluronan staining of tumor sections (hyaluronan): almost completely absent | change in tumor HA by histochemical staining [2]: decrease in pericellular and stromal HA levels | histopathologic changes of knee joint or skeletal muscle (IV twice weekly, 4 weeks): no associated histopathologic changes | clinical signs (monkeys administered PEGPH20): hypoactivity, lethargy, disorientation, hunched posture and a decrease in limb joint angle | HA catabolites (HA catabolites): appearance of HA catabolites | time course of plasma concentrations ([3]; 0.5 μg/kg to 1.5 μg/kg): concentrations fell below the limit of quantification (BQL) during the first day | plasma concentrations after dosing ([3]; 0.5 μg/kg to 1.5 μg/kg, twelve patients): ≤ 1.5 U/mL | CL [3, 7]: 2.44 mL/h/kg and 3.29 mL/h/kg | V1 (mL/kg), volume of the central compartment [3, 7]: 57.96 mL/kg and 55.93 mL/kg | t1/2α (hr), distribution half-life [3, 7]: 4.77 h and 2.47 h | plasma enzyme at 72 hours after administration ([3]; single IV dose 50 μg/kg): < 2 U/mL | plasma enzyme initially following administration ([3]; single IV dose 50 μg/kg): approximately 30 U/mL | terminal half-life ([3]; single IV dose 50 μg/kg): approximately 2 days | plasma half life ([3]; single IV dose 50 μg/kg, two patients): 28 to 48 h | plasma hyaluronan [4]: no detectable (below limit of quantitation) hyaluronan | hyaluronan staining of skeletal muscle (tissue HA (hyaluronan); 24 h after Day 59 dose, antibody-positive dogs): did not remove extracellular hyaluronan in skeletal muscle samples | hyaluronan staining, post-treatment skeletal muscle and skin (tissue HA (hyaluronan); 24 h after first IV dose, PEGPH20 0.3 mg/kg alone, or 0.3 / 1.0 mg/kg + dexamethasone 4 mg BID): virtually no hyaluronan staining | complete resolution of musculoskeletal observations post-dose ([5]; PEGPH20 0.3 mg/kg IV alone): approximately 72 hours | onset of musculoskeletal observations post-dose ([5]; PEGPH20 0.3 mg/kg IV alone): approximately 10 hours | musculoskeletal observations ([5]; PEGPH20 11400 Units/kg (0.3 mg/kg) IV alone): moderate to severe musculoskeletal observations
